assay: soluble on expression in E. coli; label from the status in PepcDB or PDB records

Question: For “MAVIYYDKDADLNLIKDKKIAIIGYGSQGHAHALNLKDSGLNVVVGLREGSKSWKKAEEQGLTVKTIEEAAKEADIIMILIPDEHQPEIYKKYIEKHLTEGKMLMFAHGFNIHYHQIIPPKNVDVTMIAPKSPGHIVRREYVEGRGVPALVAVYQDYTGKAKDIALAYAKGIGVTRAGVIETTFKEETETDLFGEQAVLCGGVTALIKAGFETLVDAGYQPEIAYFECLNELKLIVDLIYEGGLSFMRYSVSNTAEYGDYISQEKIVTKEVRENMKQMLKDIQTGKFAKDWILENQAGRPYFYTMRKKESEHLIEKVGKELRKMMPWLKERNVDEE”, which “soluble on expression in E. coli” value is on record?
Answer: soluble

Question: Which “soluble on expression in E. coli” value does the source give for “MPIITKNTDTTCQTPPLLSIICPAYNQEAFVAQALDGFLSQQTRFNYEILINDDASTDGTARIIAQYAERHPTIIRAFYQQVNQYSQGLPCVPDLFAEARGRYIAYCEADDYWTDPRKLQLQVDFLESHPDYVITYHDAVAFDENGEYGVQLQGHLRADATALELQQARRLSTLTTCFRNVFSTMPPELNIRVAPLNDMCWWSLLGAHGKGKFMADIKPAAYRLHAGGVFSMRSDKRKLHMNLQTCSSLANYYNLQGNQALYEYFLMQTVCLSLAALTPSHKLQTLWQVASNVVVNLGRRLLPTTGKAHVQ” here?
Answer: not soluble

Question: With “MGSDKIHHHHHHMDFHTGKWLCKQYNLNSFTKVSLLHGGENQTYMFESDKNKFVVRQYREGRYTAEQIEAEIHWLIAIQKQMLVPEVVVNKDGDWVTPVMKDEGSIQYFVVFRFINGNEIIEPKDKDYEKLGSFMRMFHEKTNGVLKSVPQTWRGYERPIYSEKKMIHEPLQCLLNTSFLSYEDKNKCLRIAERIQELTNSIQLREKQFVHGDMHFGNILVDKEDWYLLDFDECGFGYKEFDIGVPRLHLIASGQLEDAWGNFMMGYGENISESAIRLGAASRIFYMAGKIPLRLDIEPIKKNPDHFIRRYIQYAEEELCGETIV” as the sequence, how does the “soluble on expression in E. coli” value read?
Answer: not soluble

Question: Which “soluble on expression in E. coli” value does the source give for “MADVDELEDPMEEMTSYTFARFLRSPETEAFVRNLDRPPQMPAMRFVYLYCLCKQIQEFSGETGFCDFVSSLVQENDSKDGPSLKSIYWGLQEATDEQRTVLCSYVESMTRGQSENLMWDILRNGIISSSKLLSTIKNGPTKVFEPAPISTNHYFGGPVAFGLRCEDTVKDIVCKLICGDASANRQFGFMISPTDGIFGVSLDLCVNVESQGDFILFTDRSCIYEIKCRFKYLFSKSEFDPIYPSYTALYKRPCKRSFIRFINSIARPTVEYVPDGRLPSEGDYLLTQDEAWNLKDVRKRKLGPGHDLVADSLAANRGVESMLYVMTDPSENAGRIGIKDRVPVNIFINPRHNYFYQVLLQYKIVGDYVRHSGGGKPGRDCSPRVNIVTAFFRKRSPLDPATCTLGSDLLLDASVEIPVAVLVTPVVLPDSVIRKTLSTAAGSWKAYADNTFDTAPWVPSGLFADDESTP” here?
Answer: soluble

Question: With “MGKEALLNLYRIEYRPKDTTFTVFKPTHEIQKEKLNKVRWRVFLQTGLPTFRREDEFWCAGKVEKDTLYLTLSNGEIVELKRVGEEEFRGFQNERECQELFRDFLTKTKVKDKFISDFYKKFRDKITVQGKNRKIALIPEVNEKVLKSEEGYFLLHLDLKFRIQPFETLQTLLERNDFNPKRIRVKPIGIDFVGRVQDVFKAKEKGEEFFRLCMERSTHKSSKKAWEELLKNRELREKAFLVVLEKGYTYPATILKPVLTYENLEDEERNEVADIVRMEPGKRLNLIRYILRRYVKALRDYGWYISPEEERAKGKLNFKDTVLDAKGKNTKVITNLRKFLELCRPFVKKDVLSVEIISVSVYKKLEWRKEEFLKELINFLKNKGIKLKIKGKSLILAQTREEAKEKLIPVINKIKDVDLVIVFLEEYPKVDPYKSFLLYDFVKRELLKKMIPSQVILNRTLKNENLKFVLLNVAEQVLAKTGNIPYKLKEIEGKVDAFVGIDISRITRDGKTVNAVAFTKIFNSKGELVRYYLTSYPAFGEKLTEKAIGDVFSLLEKLGFKKGSKIVVHRDGRLYRDEVAAFKKYGELYGYSLELLEIIKRNNPRFFSNEKFIKGYFYKLSEDSVILATYNQVYEGTHQPIKVRKVYGELPVEVLCSQILSLTLMNYSSFQPIKLPATVHYSDKITKLMLRGIEPIKKEGDIMYWL” as the sequence, how does the “soluble on expression in E. coli” value read?
Answer: soluble

Question: Which “soluble on expression in E. coli” value does the source give for “MGSDKIHHHHHHMVDNPGNLNSFRALALQVTCHAVNQASDRQEAGLMMHNTINRLAQQIAASIAFIGFDCRLIVLPEYFLTGFPMGEPLQVWADKACLEINGAEYEALGMIAQKQQIFLAGNAYELDPNFPGLYFQTCFVIDPSGSVVLRYRRLNSLFAPTPHDVWDKYLDCYGLEGVFPVAKTAIGNLAALASEEILYPEVARCLAMRGAEIFLHSTSEVYSKNLTPKDAAKITRAVENMAYVVSANSAGLANSAIPIGSVDGGSKIIDHRGIILAETGPGESMAAFAEIDLAALRRDRTRPGLNNLLSRQRFEMYAQSYSQAKFYPANTMLNKEIERKHFIQTQQETIERLTRLGII” here?
Answer: not soluble

Question: Which “soluble on expression in E. coli” value does the source give for “HHHHHHHMTAPAADDRIDEIERAITKSRRYQTVAPATVRRLARAALVAARGDVPDAVKRTKRGLHEIYGAFLPPSPPNYAALLRHLDSAVDAGDDEAVRAALLRAMSVHISTRERLPHLDEFYRELFRHLPRPNTLRDLACGLNPLAAPWMGLPAETVYIASDIDARLVGFVDEALTRLNVPHRTNVADLLEDRLDEPADVTLLLKTLPCLETQQRGSGWEVIDIVNSPNIVVTFPTKSLGQRSKGMFQNYSQSFESQARERSCRIQRLEIGNELIYVIQK” here?
Answer: soluble

Question: For “MRTPIALSLALCLSLFPSFASAEEAAPEGEGANKPVYVDLTPALVGNYGSGPRLQYYKADIALQVADKDAATKVEHHEPLIRNQLIMLFAQQTDQSLGTVEAKESLRQEALKQVQQTLEQEEGKPLVTDLLFNNLIVQP”, which “soluble on expression in E. coli” value is on record?
Answer: not soluble

Question: With “MEQAMLKTLALLVLGMHYWCATGFPVYDYDPSSLQEALSASVAKVNSQSLSPYLFRATRSSLKRVNVLDEDTLVMNLEFSVQETTCLRDSGDPSTCAFQRGYSVPTAACRSTVQMSKGQVKDVWAHCRWASSSESNSSEEMMFGDMARSHRRRNDYLLGFLSDESRSEQFRDRSLEIMRRGQPPAHRRFLNLHRRARVNSGFE” as the sequence, how does the “soluble on expression in E. coli” value read?
Answer: soluble

Question: With “MSVVLGENELVIRGCILYEVLNKKPIQESYENFCRNVGNDVMSYNDFDFWFYRFYNGNHDLHYDRSADPASPLLSNMPLNIIDEVLNRMEILNLLVLMKVSRNFRKVVQNMKMVFDCIEVDFDEHLAITYNSRHKIKYRPNDTAQYSPFRQEPTCTCGRRIRTSDEDNRKEFFVTDEDYIELGVKDLKLIMENQNVQLKKFQFSNGSNQDTQKKFIDRAEIAFKSAKSSTRTVEAHYNSLAEIAQLLPIFHAGKLEEINFKQGARTDGYEQLVGLEQWKNARKFDGFWSLNVPIEHCLHFECFKDHFVRFKEEDAMKLRYMLDRSTNFGYAEITIDPMNVSLLKRAFDVNNDNKFEFVYQSPDNGSFEVHCALRVLYITKSGYKFKYNNKSASTFYKPPPIPAPPALFLRDYQFFDPRPRMPTDRSRYRPF” as the sequence, how does the “soluble on expression in E. coli” value read?
Answer: not soluble

Question: With “VVCREASHAGSWYTASGPQLNAQLEGWLSQVQSTKRPARAIIAPHAGYTYCGSCAAHAYKQVDPSITRRIFILGPSHHVPLSRCALSSVDIYRTPLYDLRIDQKIYGELWKTGMFERMSLQTDEDEHSIEMHLPYTAKAMESHKDEFTIIPVLVGALSESKEQEFGKLFSKYLADPSNLFVVSSDFCHWGQRFRYSYYDESQGEIYRSIEHLDKMGMSIIEQLDPVSFSNYLKKYHNTICGRHPIGVLLNAITELQKNGMNMSFSFLNYAQSSQCRNWQDSSVSYAAGALTVH” as the sequence, how does the “soluble on expression in E. coli” value read?
Answer: soluble

Question: Which “soluble on expression in E. coli” value does the source give for “MRGSVAALLLAAGRSIRMGRCKQLLPLGNTTVLGRCLDTLRRGGVGEIAVVVSADGEQVARAAAGHGVRVVVNPDREGDMASSVRAGRDAFGSAVGGVIVSLCDQPLVAAGTVARLRDRHATEPGRIIIPTHGGRRGHPLLFPLPVLAELEDGLTLRDLVVCDPARVCCVAVADPGILIDMDTPEDYRHVCRLMAPQEGLSLRLEHHHHHH” here?
Answer: not soluble

Question: For “MSLAMNKVPGYNIYIGGVFALKNKVAMSGANITHVLSVIRLRPKDDLFAGYQHHRIEVDDLDDENLLEHFPSAIKFIQSGLDAGGGVLVHWPLTASSAMGKSRSATVCIAYLLRRQRNALTPQSALALLRESRPLCEPNPGFMEQLNVYYQMGEGHHHHHH”, which “soluble on expression in E. coli” value is on record?
Answer: not soluble
